Measured values published in PMC9482650, “Quantitative fragmentomics allow affinity mapping of interactomes” (Nature Communications, 2022).

T1: PDZRN3_2, Q9UPQ7
T1 sequence (Q9UPQ7 414-513, limits assumed, looked up): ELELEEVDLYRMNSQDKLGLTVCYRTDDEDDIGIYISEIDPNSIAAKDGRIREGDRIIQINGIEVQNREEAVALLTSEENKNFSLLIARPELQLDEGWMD

T2: LIN7C, Q9NUP9
T2 sequence (Q9NUP9 88-185, limits assumed, looked up): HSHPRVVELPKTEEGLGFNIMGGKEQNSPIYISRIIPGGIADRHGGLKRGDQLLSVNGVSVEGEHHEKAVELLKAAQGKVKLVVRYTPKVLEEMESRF

T3: PDZD2_1, O15018
T3 sequence (O15018 80-192, limits assumed, looked up): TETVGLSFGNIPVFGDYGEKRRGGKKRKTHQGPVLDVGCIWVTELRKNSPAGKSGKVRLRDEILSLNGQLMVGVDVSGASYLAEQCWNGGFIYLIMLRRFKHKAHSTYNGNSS

T4: PARD6G, Q9BYG4
T4 sequence (Q9BYG4 153-261, limits assumed, looked up): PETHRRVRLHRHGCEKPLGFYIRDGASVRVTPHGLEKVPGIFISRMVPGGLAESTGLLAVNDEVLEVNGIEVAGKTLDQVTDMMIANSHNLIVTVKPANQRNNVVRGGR

T5: MPP5, Q8N3R9
T5 sequence (Q8N3R9 251-346, limits assumed, looked up): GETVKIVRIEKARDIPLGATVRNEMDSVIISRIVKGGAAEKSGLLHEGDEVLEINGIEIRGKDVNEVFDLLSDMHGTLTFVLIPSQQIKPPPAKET

T6: USH1C_3, Q9Y6N9
T6 sequence (Q9Y6N9 447-547, limits assumed, looked up): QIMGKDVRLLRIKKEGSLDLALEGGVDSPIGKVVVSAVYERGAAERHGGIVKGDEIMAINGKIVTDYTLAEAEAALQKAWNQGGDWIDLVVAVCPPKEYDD

T7: PDZD11, Q5EBL8
T7 sequence (Q5EBL8 42-139, limits assumed, looked up): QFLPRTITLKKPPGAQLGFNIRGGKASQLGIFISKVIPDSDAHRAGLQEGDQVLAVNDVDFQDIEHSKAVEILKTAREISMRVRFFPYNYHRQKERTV

T8: MPDZ_7, O75970
T8 sequence (O75970 1146-1253, limits assumed, looked up): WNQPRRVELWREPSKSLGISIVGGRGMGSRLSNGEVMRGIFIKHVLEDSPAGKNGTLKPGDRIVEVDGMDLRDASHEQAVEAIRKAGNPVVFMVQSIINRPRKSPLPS

T9: PDLIM3, Q53GG5
T9 sequence (Q53GG5 1-94, limits assumed, looked up): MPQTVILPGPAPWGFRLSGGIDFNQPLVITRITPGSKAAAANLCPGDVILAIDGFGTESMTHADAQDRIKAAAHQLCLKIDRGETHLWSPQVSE

T10: NHERF3_2, Q5T2W1
T10 sequence (Q5T2W1 129-225, limits assumed, looked up): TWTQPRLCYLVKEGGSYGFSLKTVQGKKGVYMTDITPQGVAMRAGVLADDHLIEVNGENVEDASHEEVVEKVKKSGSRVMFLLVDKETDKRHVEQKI

T11: DFNB31_2, Q9P202
T11 sequence (Q9P202 274-371, limits assumed, looked up): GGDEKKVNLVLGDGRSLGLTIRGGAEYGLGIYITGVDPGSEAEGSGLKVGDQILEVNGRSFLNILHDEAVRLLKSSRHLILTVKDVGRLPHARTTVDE

T12: USH1C_1, Q9Y6N9
T12 sequence (Q9Y6N9 82-179, limits assumed, looked up): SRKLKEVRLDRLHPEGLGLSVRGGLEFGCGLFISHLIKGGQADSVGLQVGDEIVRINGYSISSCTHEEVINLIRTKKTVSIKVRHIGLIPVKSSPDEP

T13: MPDZ_3, O75970
T13 sequence (O75970 372-473, limits assumed, looked up): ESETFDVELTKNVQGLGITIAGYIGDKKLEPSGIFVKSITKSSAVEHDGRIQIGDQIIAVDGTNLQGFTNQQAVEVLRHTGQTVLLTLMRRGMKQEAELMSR

T14: SYNPO2L, Q9H987
T14 sequence (Q9H987 1-98, limits assumed, looked up): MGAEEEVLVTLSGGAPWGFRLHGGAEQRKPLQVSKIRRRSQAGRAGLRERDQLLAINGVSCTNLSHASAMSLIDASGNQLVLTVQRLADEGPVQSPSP


What follows are binders tested against T1, PDZRN3_2, Q9UPQ7 (assay: holdup assay). Conditions: plain residues with an end cap or a label only (N-terminal biotin on a linker: ttds).
Parameters: key: below the threshold = too weak to quantify, mostly under pKd 3.1 to 4

| Binder | pKd |
| --- | --- |
| SEKHFRETEV [HTLV1-TAX1, P03409] | below the threshold |
| IQREDQETAV [DGKZ, Q13574] | below the threshold |

These binders were tested against T2, LIN7C, Q9NUP9 (assay: holdup assay). Conditions: plain residues with an end cap or a label only (N-terminal biotin on a linker: ttds).
Parameters: key: below the threshold = too weak to quantify, mostly under pKd 3.1 to 4

| Binder | pKd |
| --- | --- |
| SEKHFRETEV [HTLV1-TAX1, P03409] | 4.59 |
| IQREDQETAV [DGKZ, Q13574] | 4.49 |

The binders below were run against T3, PDZD2_1, O15018 (assay: holdup assay). Conditions: plain residues with an end cap or a label only (N-terminal biotin on a linker: ttds).
Parameters: key: below the threshold = too weak to quantify, mostly under pKd 3.1 to 4

| Binder | pKd |
| --- | --- |
| SEKHFRETEV [HTLV1-TAX1, P03409] | below the threshold |
| IQREDQETAV [DGKZ, Q13574] | below the threshold |

Each binder was assayed against T4, PARD6G, Q9BYG4 (assay: holdup assay). Conditions: plain residues with an end cap or a label only (N-terminal biotin on a linker: ttds).
Parameters: key: below the threshold = too weak to quantify, mostly under pKd 3.1 to 4

| Binder | pKd |
| --- | --- |
| SEKHFRETEV [HTLV1-TAX1, P03409] | 3.93 |
| IQREDQETAV [DGKZ, Q13574] | below the threshold |

These binders were tested against MAGI3_6, Q5TCQ9 (assay: holdup assay). Conditions: plain residues with an end cap or a label only (N-terminal biotin on a linker: ttds).
Parameters: key: below the threshold = too weak to quantify, mostly under pKd 3.1 to 4

Sequence of MAGI3_6, Q5TCQ9 (Q5TCQ9 1014-1103): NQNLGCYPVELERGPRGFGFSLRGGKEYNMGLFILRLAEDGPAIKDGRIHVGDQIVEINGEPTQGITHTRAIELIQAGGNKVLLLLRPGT

| Binder | pKd |
| --- | --- |
| SEKHFRETEV [HTLV1-TAX1, P03409] | 4.54 |
| IQREDQETAV [DGKZ, Q13574] | below the threshold |

What follows are binders tested against T5, MPP5, Q8N3R9 (assay: holdup assay). Conditions: plain residues with an end cap or a label only (N-terminal biotin on a linker: ttds).
Parameters: key: below the threshold = too weak to quantify, mostly under pKd 3.1 to 4

| Binder | pKd |
| --- | --- |
| SEKHFRETEV [HTLV1-TAX1, P03409] | below the threshold |
| IQREDQETAV [DGKZ, Q13574] | below the threshold |

These binders were tested against T6, USH1C_3, Q9Y6N9 (assay: holdup assay). Conditions: plain residues with an end cap or a label only (N-terminal biotin on a linker: ttds).
Parameters: key: below the threshold = too weak to quantify, mostly under pKd 3.1 to 4

| Binder | pKd |
| --- | --- |
| SEKHFRETEV [HTLV1-TAX1, P03409] | below the threshold |
| IQREDQETAV [DGKZ, Q13574] | below the threshold |

These binders were tested against T7, PDZD11, Q5EBL8 (assay: holdup assay). Conditions: plain residues with an end cap or a label only (N-terminal biotin on a linker: ttds).
Parameters: key: below the threshold = too weak to quantify, mostly under pKd 3.1 to 4

| Binder | pKd |
| --- | --- |
| SEKHFRETEV [HTLV1-TAX1, P03409] | below the threshold |
| IQREDQETAV [DGKZ, Q13574] | below the threshold |

The binders below were run against T8, MPDZ_7, O75970 (assay: holdup assay). Conditions: plain residues with an end cap or a label only (N-terminal biotin on a linker: ttds).
Parameters: key: below the threshold = too weak to quantify, mostly under pKd 3.1 to 4

| Binder | pKd |
| --- | --- |
| SEKHFRETEV [HTLV1-TAX1, P03409] | 4.44 |
| IQREDQETAV [DGKZ, Q13574] | below the threshold |

What follows are binders tested against PDZRN4_2, Q6ZMN7 (assay: holdup assay). Conditions: plain residues with an end cap or a label only (N-terminal biotin on a linker: ttds).
Parameters: key: below the threshold = too weak to quantify, mostly under pKd 3.1 to 4

Sequence of PDZRN4_2, Q6ZMN7 (Q6ZMN7 389-498): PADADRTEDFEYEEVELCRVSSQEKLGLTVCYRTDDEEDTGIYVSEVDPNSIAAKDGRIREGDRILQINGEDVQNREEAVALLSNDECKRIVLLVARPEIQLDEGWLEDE

| Binder | pKd |
| --- | --- |
| SEKHFRETEV [HTLV1-TAX1, P03409] | below the threshold |
| IQREDQETAV [DGKZ, Q13574] | below the threshold |

Each binder was assayed against T9, PDLIM3, Q53GG5 (assay: holdup assay). Conditions: plain residues with an end cap or a label only (N-terminal biotin on a linker: ttds).
Parameters: key: below the threshold = too weak to quantify, mostly under pKd 3.1 to 4

| Binder | pKd |
| --- | --- |
| SEKHFRETEV [HTLV1-TAX1, P03409] | 4.12 |
| IQREDQETAV [DGKZ, Q13574] | below the threshold |

The binders below were run against T10, NHERF3_2, Q5T2W1 (assay: holdup assay). Conditions: plain residues with an end cap or a label only (N-terminal biotin on a linker: ttds).
Parameters: key: below the threshold = too weak to quantify, mostly under pKd 3.1 to 4

| Binder | pKd |
| --- | --- |
| SEKHFRETEV [HTLV1-TAX1, P03409] | below the threshold |
| IQREDQETAV [DGKZ, Q13574] | below the threshold |

The binders below were run against T11, DFNB31_2, Q9P202 (assay: holdup assay). Conditions: plain residues with an end cap or a label only (N-terminal biotin on a linker: ttds).
Parameters: key: below the threshold = too weak to quantify, mostly under pKd 3.1 to 4

| Binder | pKd |
| --- | --- |
| SEKHFRETEV [HTLV1-TAX1, P03409] | 3.71 |
| IQREDQETAV [DGKZ, Q13574] | below the threshold |

These binders were tested against NHERF2_1, Q15599 (assay: holdup assay). Conditions: plain residues with an end cap or a label only (N-terminal biotin on a linker: ttds).
Parameters: key: below the threshold = too weak to quantify, mostly under pKd 3.1 to 4

Sequence of NHERF2_1, Q15599 (Q15599 9-91): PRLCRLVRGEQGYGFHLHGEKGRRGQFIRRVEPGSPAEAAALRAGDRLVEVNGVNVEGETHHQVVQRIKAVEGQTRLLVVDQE

| Binder | pKd |
| --- | --- |
| SEKHFRETEV [HTLV1-TAX1, P03409] | 3.95 |
| IQREDQETAV [DGKZ, Q13574] | below the threshold |

Each binder was assayed against T12, USH1C_1, Q9Y6N9 (assay: holdup assay). Conditions: plain residues with an end cap or a label only (N-terminal biotin on a linker: ttds).
Parameters: key: below the threshold = too weak to quantify, mostly under pKd 3.1 to 4

| Binder | pKd |
| --- | --- |
| SEKHFRETEV [HTLV1-TAX1, P03409] | below the threshold |
| IQREDQETAV [DGKZ, Q13574] | below the threshold |

The binders below were run against Inadl_7, Q8NI35 (assay: holdup assay). Conditions: plain residues with an end cap or a label only (N-terminal biotin on a linker: ttds).
Parameters: key: below the threshold = too weak to quantify, mostly under pKd 3.1 to 4

Sequence of Inadl_7, Q8NI35 (Q8NI35 1219-1332): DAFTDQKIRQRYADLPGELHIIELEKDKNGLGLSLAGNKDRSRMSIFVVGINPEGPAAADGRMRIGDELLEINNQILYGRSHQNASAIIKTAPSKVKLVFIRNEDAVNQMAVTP

| Binder | pKd |
| --- | --- |
| SEKHFRETEV [HTLV1-TAX1, P03409] | below the threshold |
| IQREDQETAV [DGKZ, Q13574] | below the threshold |

The binders below were run against PTPN13_2, Q12923 (assay: holdup assay). Conditions: plain residues with an end cap or a label only (N-terminal biotin on a linker: ttds).
Parameters: key: below the threshold = too weak to quantify, mostly under pKd 3.1 to 4

Sequence of PTPN13_2, Q12923 (Q12923 1363-1462): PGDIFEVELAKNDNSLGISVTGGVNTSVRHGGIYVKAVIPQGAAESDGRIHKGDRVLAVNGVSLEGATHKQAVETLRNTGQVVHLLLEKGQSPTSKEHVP

| Binder | pKd |
| --- | --- |
| SEKHFRETEV [HTLV1-TAX1, P03409] | below the threshold |
| IQREDQETAV [DGKZ, Q13574] | below the threshold |

Each binder was assayed against RIMS2, Q9UQ26 (assay: holdup assay). Conditions: plain residues with an end cap or a label only (N-terminal biotin on a linker: ttds).
Parameters: key: below the threshold = too weak to quantify, mostly under pKd 3.1 to 4

Sequence of RIMS2, Q9UQ26 (Q9UQ26 637-758): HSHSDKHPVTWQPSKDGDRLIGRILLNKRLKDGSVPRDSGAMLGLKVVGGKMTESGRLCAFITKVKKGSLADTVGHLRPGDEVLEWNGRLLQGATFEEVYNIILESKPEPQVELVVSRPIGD

| Binder | pKd |
| --- | --- |
| SEKHFRETEV [HTLV1-TAX1, P03409] | below the threshold |
| IQREDQETAV [DGKZ, Q13574] | below the threshold |

Each binder was assayed against MAGI3_4, Q5TCQ9 (assay: holdup assay). Conditions: plain residues with an end cap or a label only (N-terminal biotin on a linker: ttds).
Parameters: key: below the threshold = too weak to quantify, mostly under pKd 3.1 to 4

Sequence of MAGI3_4, Q5TCQ9 (Q5TCQ9 716-815): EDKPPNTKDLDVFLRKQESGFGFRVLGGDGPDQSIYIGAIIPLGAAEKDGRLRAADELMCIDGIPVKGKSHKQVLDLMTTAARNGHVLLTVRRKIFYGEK

| Binder | pKd |
| --- | --- |
| SEKHFRETEV [HTLV1-TAX1, P03409] | 3.79 |
| IQREDQETAV [DGKZ, Q13574] | below the threshold |

Each binder was assayed against T13, MPDZ_3, O75970 (assay: holdup assay). Conditions: plain residues with an end cap or a label only (N-terminal biotin on a linker: ttds).
Parameters: key: below the threshold = too weak to quantify, mostly under pKd 3.1 to 4

| Binder | pKd |
| --- | --- |
| SEKHFRETEV [HTLV1-TAX1, P03409] | 3.92 |
| IQREDQETAV [DGKZ, Q13574] | below the threshold |

Each binder was assayed against CNKSR3, Q6P9H4 (assay: holdup assay). Conditions: plain residues with an end cap or a label only (N-terminal biotin on a linker: ttds).
Parameters: key: below the threshold = too weak to quantify, mostly under pKd 3.1 to 4

Sequence of CNKSR3, Q6P9H4 (Q6P9H4 203-303): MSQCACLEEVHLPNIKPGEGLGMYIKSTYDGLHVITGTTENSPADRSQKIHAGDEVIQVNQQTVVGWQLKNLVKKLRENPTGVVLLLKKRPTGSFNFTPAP

| Binder | pKd |
| --- | --- |
| SEKHFRETEV [HTLV1-TAX1, P03409] | below the threshold |
| IQREDQETAV [DGKZ, Q13574] | below the threshold |

The binders below were run against DVL2, O14641 (assay: holdup assay). Conditions: plain residues with an end cap or a label only (N-terminal biotin on a linker: ttds).
Parameters: key: below the threshold = too weak to quantify, mostly under pKd 3.1 to 4

Sequence of DVL2, O14641 (O14641 260-359): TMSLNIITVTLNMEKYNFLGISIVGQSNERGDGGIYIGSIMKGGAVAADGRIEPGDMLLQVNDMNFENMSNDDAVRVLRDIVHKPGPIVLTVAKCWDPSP

| Binder | pKd |
| --- | --- |
| SEKHFRETEV [HTLV1-TAX1, P03409] | below the threshold |
| IQREDQETAV [DGKZ, Q13574] | 4.5 |

What follows are binders tested against T14, SYNPO2L, Q9H987 (assay: holdup assay). Conditions: plain residues with an end cap or a label only (N-terminal biotin on a linker: ttds).
Parameters: key: below the threshold = too weak to quantify, mostly under pKd 3.1 to 4

| Binder | pKd |
| --- | --- |
| SEKHFRETEV [HTLV1-TAX1, P03409] | below the threshold |
| IQREDQETAV [DGKZ, Q13574] | below the threshold |
